Laboratory results from the supplement of paper PMC9112550, “Optimization of the antimicrobial peptide Bac7 by deep mutational scanning” (BMC Biology, 2022).

Tested on: Escherichia coli TOP10
Assay: shrunken log2 fold change of peptide-encoding DNA abundance (4.5 h post-induction vs induction); higher = less antimicrobial activity (less host growth inhibition)
Conditions: time post-induction: 4.5 h; library: site-saturation at positions 5, 18, 19, 20
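Note: peptides expressed intracellularly from a pBAD plasmid library in pooled LB shake-flask culture, induced with 0.3% L-arabinose, DNA abundance read by NGS, three biological replicates, DESeq2 with apeglm shrinkage.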

| Sequence | shrunken log2 fold change |
| --- | --- |
| RRIRRRPPRLPRPRPRPMDRPRP | 0.118 |
| RRIRCRPPRLPRPRPRPWRFPRP | 0.145 |
| RRIRHRPPRLPRPRPRPTCPPRP | 0.0464 |
| RRIRTRPPRLPRPRPRPWINPRP | 0.0189 |
| RRIRKRPPRLPRPRPRPEDVPRP | -0.04 |
| RRIRSRPPRLPRPRPRPEVEPRP | 0.112 |
| RRIRARPPRLPRPRPRPHHQPRP | -0.0146 |
| RRIRCRPPRLPRPRPRPIHMPRP | 0.109 |
| RRIRYRPPRLPRPRPRPKKMPRP | -0.374 |
| RRIRWRPPRLPRPRPRPIQPPRP | 0.0851 |
| RRIRLRPPRLPRPRPRPKPYPRP | 0.00713 |
| RRIRDRPPRLPRPRPRPPDFPRP | 0.0426 |
| RRIRPRPPRLPRPRPRPRDGPRP | 0.694 |
| RRIRTRPPRLPRPRPRPDGIPRP | -0.00822 |
| RRIRGRPPRLPRPRPRPGSLPRP | 0.421 |
| RRIRPRPPRLPRPRPRPYCLPRP | -0.115 |
| RRIRSRPPRLPRPRPRPLSWPRP | 0.239 |
| RRIRRRPPRLPRPRPRPEIMPRP | 0.209 |
| RRIRVRPPRLPRPRPRPAFMPRP | -0.352 |
| RRIRARPPRLPRPRPRPIQQPRP | 0.0227 |
| RRIRVRPPRLPRPRPRPGRDPRP | 0.175 |
| RRIRTRPPRLPRPRPRPYNVPRP | -0.297 |
| RRIRARPPRLPRPRPRPAGSPRP | 0.0823 |
| RRIRGRPPRLPRPRPRPFSQPRP | 0.194 |
| RRIRPRPPRLPRPRPRPSIVPRP | -0.662 |

| Sequence | shrunken log2 fold change |
| --- | --- |
| RRIRARPPRLPRPRPRPDEDPRP | 2.09 |
| RRIRFRPPRLPRPRPRPWFCPRP | 3.7 |
| RRIRSRPPRLPRPRPRPQSEPRP | -0.0306 |
| RRIRTRPPRLPRPRPRPSCHPRP | -0.783 |
| RRIRKRPPRLPRPRPRPILRPRP | -0.0475 |
| RRIRLRPPRLPRPRPRPFYKPRP | -0.349 |
| RRIRDRPPRLPRPRPRPECFPRP | 1.46 |
| RRIRYRPPRLPRPRPRPEYGPRP | -0.249 |
| RRIRFRPPRLPRPRPRPHPEPRP | -0.00858 |
| RRIRERPPRLPRPRPRPGYAPRP | -0.102 |
| RRIRLRPPRLPRPRPRPGIFPRP | -0.313 |
| RRIRQRPPRLPRPRPRPFKNPRP | 0.0784 |
| RRIRYRPPRLPRPRPRPTCWPRP | 0.0987 |
| RRIRPRPPRLPRPRPRPGYNPRP | -0.552 |
| RRIRVRPPRLPRPRPRPWDCPRP | -0.0389 |
| RRIRSRPPRLPRPRPRPKKAPRP | 0.0943 |
| RRIRLRPPRLPRPRPRPWALPRP | 0.0419 |
| RRIRERPPRLPRPRPRPQNAPRP | 0.0619 |
| RRIRVRPPRLPRPRPRPKKRPRP | 0.154 |
| RRIRWRPPRLPRPRPRPPGVPRP | 0.525 |
| RRIRARPPRLPRPRPRPEFKPRP | 0.0365 |
| RRIRLRPPRLPRPRPRPKYDPRP | -0.0843 |
| RRIRNRPPRLPRPRPRPVTWPRP | -0.0637 |
| RRIRFRPPRLPRPRPRPWCMPRP | -0.214 |
| RRIRHRPPRLPRPRPRPILIPRP | -0.0862 |

| Sequence | shrunken log2 fold change |
| --- | --- |
| RRIRYRPPRLPRPRPRPSACPRP | -0.301 |
| RRIRSRPPRLPRPRPRPIAAPRP | 0.333 |
| RRIRARPPRLPRPRPRPQQFPRP | 0.097 |
| RRIRKRPPRLPRPRPRPANGPRP | 0.566 |
| RRIRVRPPRLPRPRPRPMLEPRP | 0.0706 |
| RRIRERPPRLPRPRPRPFEEPRP | -0.217 |
| RRIRKRPPRLPRPRPRPAGWPRP | 0.893 |
| RRIRYRPPRLPRPRPRPQMLPRP | -0.846 |
| RRIRGRPPRLPRPRPRPVAIPRP | 0.949 |
| RRIRLRPPRLPRPRPRPGDRPRP | -0.0244 |
| RRIRIRPPRLPRPRPRPMQQPRP | 0.0184 |
| RRIRGRPPRLPRPRPRPMKYPRP | 0.0733 |
| RRIRARPPRLPRPRPRPYAEPRP | -0.104 |
| RRIRFRPPRLPRPRPRPRFGPRP | -0.0656 |
| RRIRERPPRLPRPRPRPNSLPRP | 0.0427 |
| RRIRPRPPRLPRPRPRPRLMPRP | 0.337 |
| RRIRTRPPRLPRPRPRPIWCPRP | -0.0116 |
| RRIRLRPPRLPRPRPRPDLGPRP | -0.0612 |
| RRIRFRPPRLPRPRPRPFTNPRP | -0.125 |
| RRIRTRPPRLPRPRPRPYVAPRP | -0.562 |
| RRIRLRPPRLPRPRPRPQRWPRP | 0.236 |
| RRIRRRPPRLPRPRPRPCLQPRP | -0.0554 |
| RRIRGRPPRLPRPRPRPIESPRP | 0.108 |
| RRIRLRPPRLPRPRPRPPNPPRP | 0.423 |
| RRIRARPPRLPRPRPRPLIHPRP | -0.117 |

| Sequence | shrunken log2 fold change |
| --- | --- |
| RRIRNRPPRLPRPRPRPYEHPRP | -0.151 |
| RRIRMRPPRLPRPRPRPQFKPRP | -0.138 |
| RRIRKRPPRLPRPRPRPAWWPRP | 0.577 |
| RRIRERPPRLPRPRPRPTDPPRP | -0.152 |
| RRIRCRPPRLPRPRPRPGLHPRP | -0.131 |
| RRIRQRPPRLPRPRPRPQVYPRP | -0.0731 |
| RRIRPRPPRLPRPRPRPWYSPRP | -0.22 |
| RRIRMRPPRLPRPRPRPISYPRP | -0.0167 |
| RRIRDRPPRLPRPRPRPANLPRP | -0.0687 |
| RRIRIRPPRLPRPRPRPRSFPRP | -0.0641 |
| RRIRCRPPRLPRPRPRPDRLPRP | -0.335 |
| RRIRMRPPRLPRPRPRPLVIPRP | -0.13 |
| RRIRSRPPRLPRPRPRPFGTPRP | 0.0399 |
| RRIRHRPPRLPRPRPRPPTNPRP | 0.101 |
| RRIRKRPPRLPRPRPRPKCDPRP | 0.405 |
| RRIRDRPPRLPRPRPRPKHCPRP | 0.0694 |
| RRIRERPPRLPRPRPRPLMEPRP | 0.0296 |
| RRIRHRPPRLPRPRPRPCVRPRP | -0.504 |
| RRIRFRPPRLPRPRPRPNMKPRP | 0.234 |
| RRIRTRPPRLPRPRPRPTQWPRP | 0.364 |
| RRIRYRPPRLPRPRPRPEDFPRP | -0.00133 |
| RRIRERPPRLPRPRPRPSTMPRP | -0.925 |
| RRIRVRPPRLPRPRPRPVICPRP | -0.0928 |
| RRIRSRPPRLPRPRPRPDVTPRP | -0.0165 |
| RRIRDRPPRLPRPRPRPMAMPRP | 0.25 |

| Sequence | shrunken log2 fold change |
| --- | --- |
| RRIRPRPPRLPRPRPRPDYHPRP | -0.815 |
| RRIRTRPPRLPRPRPRPITSPRP | 0.0903 |
| RRIRQRPPRLPRPRPRPDWQPRP | 0.0854 |
| RRIRCRPPRLPRPRPRPTWCPRP | -0.0117 |
| RRIRSRPPRLPRPRPRPEVLPRP | -0.0111 |
| RRIRCRPPRLPRPRPRPTMSPRP | -0.139 |
| RRIRRRPPRLPRPRPRPSHMPRP | 0.157 |
| RRIRMRPPRLPRPRPRPMKMPRP | 0.803 |
| RRIRVRPPRLPRPRPRPKPHPRP | 0.264 |
| RRIRGRPPRLPRPRPRPYPTPRP | 0.0422 |
| RRIRVRPPRLPRPRPRPPTFPRP | 0.0282 |
| RRIRWRPPRLPRPRPRPISCPRP | -0.0467 |
| RRIRERPPRLPRPRPRPTKPPRP | -0.394 |
| RRIRVRPPRLPRPRPRPAAQPRP | 0.433 |
| RRIRFRPPRLPRPRPRPEKWPRP | 0.109 |
| RRIRERPPRLPRPRPRPYDTPRP | -0.00822 |
| RRIRFRPPRLPRPRPRPKQGPRP | -0.00975 |
| RRIRRRPPRLPRPRPRPHQCPRP | -0.0941 |
| RRIRPRPPRLPRPRPRPCTYPRP | -0.253 |
| RRIRYRPPRLPRPRPRPIMVPRP | -0.152 |
| RRIRYRPPRLPRPRPRPNDCPRP | -1.04 |
| RRIRVRPPRLPRPRPRPTHHPRP | 0.586 |
| RRIRERPPRLPRPRPRPDHLPRP | -0.223 |
| RRIRMRPPRLPRPRPRPDRWPRP | 0.926 |
| RRIRIRPPRLPRPRPRPELFPRP | 0.23 |

| Sequence | shrunken log2 fold change |
| --- | --- |
| RRIRKRPPRLPRPRPRPCMAPRP | 0.0448 |
| RRIRFRPPRLPRPRPRPWSKPRP | -0.079 |
| RRIRLRPPRLPRPRPRPVNNPRP | -0.269 |
| RRIRERPPRLPRPRPRPEATPRP | 0.18 |
| RRIRLRPPRLPRPRPRPWIIPRP | -0.631 |
| RRIRRRPPRLPRPRPRPSEPPRP | 0.115 |
| RRIRHRPPRLPRPRPRPLTMPRP | -0.3 |
| RRIRARPPRLPRPRPRPMIPPRP | 0.0233 |
| RRIRYRPPRLPRPRPRPLAKPRP | 0.19 |
| RRIRMRPPRLPRPRPRPCSSPRP | -0.0756 |
| RRIRMRPPRLPRPRPRPCWYPRP | 0.092 |
| RRIRKRPPRLPRPRPRPHTVPRP | -0.407 |
| RRIRPRPPRLPRPRPRPMIHPRP | -0.696 |
| RRIRPRPPRLPRPRPRPEQSPRP | 0.289 |
| RRIRERPPRLPRPRPRPQWSPRP | 0.0836 |
| RRIRDRPPRLPRPRPRPSMCPRP | 0.123 |
| RRIRHRPPRLPRPRPRPRPTPRP | 0.759 |
| RRIRVRPPRLPRPRPRPLLMPRP | -0.325 |
| RRIRYRPPRLPRPRPRPPLNPRP | -0.228 |
| RRIRIRPPRLPRPRPRPHYWPRP | -0.85 |
| RRIRTRPPRLPRPRPRPKTTPRP | 0.0871 |
| RRIRQRPPRLPRPRPRPGEAPRP | 0.271 |
| RRIRVRPPRLPRPRPRPWKIPRP | -0.0261 |
| RRIRCRPPRLPRPRPRPINRPRP | 0.0376 |
| RRIRNRPPRLPRPRPRPRNDPRP | -0.304 |
